Experimental data as given in article PMC7532178, “Interaction of protocadherin-15 with the scaffold protein whirlin supports its anchoring of hair-bundle lateral links in cochlear hair cells” (Scientific Reports, 2020).
No end group written: not given here. *: point of attachment. Biotin = O=C1N[C@H]2[C@H](CS[C@H]2CCCCC(=O)*)N1; TTDS = trioxatridecan-succinamic acid spacer

What was measured:
[1] = biological target: PCDH15-CD2 C-terminal peptide (biotin-TTDS-…) (mouse); experiment: SPR; harmonin fragments or full-length harmonin-a1 with C-terminal peptides; Fig. S10 and data not shown
[2] = biological target: PCDH15-CD3 C-terminal peptide (biotin-TTDS-…) (mouse); experiment: as above
[3] = biological target: PCDH15-CD1 C-terminal peptide (biotin-TTDS-…) (mouse); experiment: as above
[4] = biological target: T1, CDH23 C-terminal peptide (Mus musculus, UniProt Q99PF4)
T1 chain: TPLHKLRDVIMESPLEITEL

[5] = biological target: T2, whirlin-NTR-PDZ1-Hp1 (aa residues 2-265) (mouse, UniProt Q80VW5-1 2-265); experiment: SPR; ProteOn XPR 36; N-terminally biotinylated peptides captured on a Neutravidin NLC sensor chip, whirlin fragments flowed as analytes at 20 μL/min for 2 min; 250 mM NaCl, 50 mM Tris pH 7.5, 0.5 mM TCEP; steady-state fit Req = (Rmax*C)/(Kd+C); mean of three experiments; Figure 4B shows the responses at 10 μM; settings: both partners purified
T2 construct: extra 7 aa at the N-terminus of all recombinant proteins of the study; whirlin (long isoform, L-whirlin), residues 2-265: NTR (with HHD1), PDZ1 and hairpin Hp1; The methods call the 2-265 construct whirlin-NTR-PDZ1; also called NTR-PDZ1-Hp1 whirlin fragment; Nter-PDZ1-Hp1; source: E. coli BL21 (DE3) codonPlus-RIPL, purified (Glutathione Sepharose 4B, GST removed by TEV proteinase, SEC)
T2 sequence: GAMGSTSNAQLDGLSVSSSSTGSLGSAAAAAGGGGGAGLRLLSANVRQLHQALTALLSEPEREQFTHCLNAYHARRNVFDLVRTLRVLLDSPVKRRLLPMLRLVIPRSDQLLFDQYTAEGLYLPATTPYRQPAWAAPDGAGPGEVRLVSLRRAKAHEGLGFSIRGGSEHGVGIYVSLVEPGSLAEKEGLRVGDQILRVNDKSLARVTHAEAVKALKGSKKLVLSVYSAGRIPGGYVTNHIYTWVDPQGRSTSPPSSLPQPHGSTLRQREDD

[6] = biological target: T3, whirlin-PDZ2 (aa residues 272-368) (mouse, UniProt Q80VW5-1 272-368); experiment: as above; settings: both partners purified
T3 construct: extra 7 aa at the N-terminus of all recombinant proteins of the study; whirlin, residues 272-368: PDZ2 domain; source: E. coli BL21 (DE3) codonPlus-RIPL, purified (Glutathione Sepharose 4B, GST removed by TEV proteinase, SEC)
T3 sequence: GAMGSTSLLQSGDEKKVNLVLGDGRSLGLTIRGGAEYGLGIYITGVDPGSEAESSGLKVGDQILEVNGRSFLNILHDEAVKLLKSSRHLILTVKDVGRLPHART

[7] = biological target: T4, whirlin PDZ1-Hp (aa residues 137-246) (mouse, UniProt Q80VW5-1 137-246); experiment: as above; settings: both partners purified
T4 construct: extra 7 aa at the N-terminus of all recombinant proteins of the study; whirlin, residues 137-246: PDZ1 with its hairpin extension Hp1; also called PDZ1 + Hp1; whirlin PDZ1-Hp1 fragment
T4 sequence: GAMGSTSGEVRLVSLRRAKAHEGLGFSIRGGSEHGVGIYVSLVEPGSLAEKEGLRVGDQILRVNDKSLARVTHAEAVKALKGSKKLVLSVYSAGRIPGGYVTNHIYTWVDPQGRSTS

[8] = biological target: T5, whirlin-HHD1 (aa residues 30-121) (mouse, UniProt Q80VW5-1 30-121); experiment: as above; settings: both partners purified
T5 construct: extra 7 aa at the N-terminus of all recombinant proteins of the study; whirlin, residues 30-121: harmonin-homology domain 1 (HHD1); also called HHD1 domain alone; source: E. coli BL21 (DE3) codonPlus-RIPL, purified (Glutathione Sepharose 4B, GST removed by TEV proteinase, SEC)
T5 sequence: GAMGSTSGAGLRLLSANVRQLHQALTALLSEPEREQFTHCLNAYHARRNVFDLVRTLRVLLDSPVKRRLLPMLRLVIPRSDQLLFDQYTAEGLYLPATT

[9] = biological target: T6, whirlin-NTR (aa residues 2-147) (mouse, UniProt Q80VW5-1 2-147); experiment: as above; settings: both partners purified
T6 construct: extra 7 aa at the N-terminus of all recombinant proteins of the study; also called entire NTR of whirlin (containing the HHD1 domain); source: E. coli BL21 (DE3) codonPlus-RIPL, purified (Glutathione Sepharose 4B, GST removed by TEV proteinase, SEC)
T6 sequence: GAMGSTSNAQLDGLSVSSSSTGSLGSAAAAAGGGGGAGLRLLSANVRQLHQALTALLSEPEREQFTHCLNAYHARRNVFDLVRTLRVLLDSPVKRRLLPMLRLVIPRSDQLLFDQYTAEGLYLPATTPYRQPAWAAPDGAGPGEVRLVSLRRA

[10] = biological target: T7, whirlin-PDZ3 (aa residues 821-915) (mouse, UniProt Q80VW5-1 821-915); experiment: as above; settings: both partners purified
T7 construct: extra 7 aa at the N-terminus of all recombinant proteins of the study; whirlin, residues 821-915: PDZ3 domain, common to L- and S-whirlin; also called whirlin PDZ3 domain
T7 sequence: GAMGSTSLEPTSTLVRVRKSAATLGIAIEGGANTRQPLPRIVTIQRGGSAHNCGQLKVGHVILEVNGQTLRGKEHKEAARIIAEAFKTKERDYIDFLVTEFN

[11] = biological target: T2, whirlin-NTR-PDZ1-Hp1 (aa residues 2-265); experiment: as above; settings: both partners purified; remark: listed apart in the source
[12] = biological target: T8, whirlin-PDZ1 (aa residues 137-228) (mouse, UniProt Q80VW5-1 137-228); experiment: as above; settings: both partners purified
T8 construct: extra 7 aa at the N-terminus of all recombinant proteins of the study; whirlin, residues 137-228: PDZ1 domain; also called whirlin PDZ1 domain alone; source: E. coli BL21 (DE3) codonPlus-RIPL, purified (Glutathione Sepharose 4B, GST removed by TEV proteinase, SEC)
T8 sequence: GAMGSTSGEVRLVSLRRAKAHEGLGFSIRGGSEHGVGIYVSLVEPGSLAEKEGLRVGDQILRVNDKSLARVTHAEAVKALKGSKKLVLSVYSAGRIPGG

[13] = biological target: T9, PCDH15-CD3 C-terminal peptide (biotin-TTDS-MGPWNSLHIPMTKL) (mouse); experiment: SPR; harmonin fragments or full-length harmonin-a1 with C-terminal peptides; Fig. S10 and data not shown; settings: both partners purified
T9 construct: C-terminal 14 aa of protocadherin-15 isoform CD3, including the PBM; source: synthetic peptide (Eurogentec); not shown: biotin, N-terminal, kept
T9 peptide: {Biotin-TTDS}-MGPWNSLHIPMTKL

[14] = biological target: T10, PCDH15-CD1 C-terminal peptide (biotin-TTDS-GIDVQPHSQSTSL) (mouse); experiment: as above; settings: both partners purified
T10 construct: C-terminal 13 aa of protocadherin-15 isoform CD1, including the PBM; source: synthetic peptide (Eurogentec); not shown: biotin, N-terminal, kept
T10 peptide: {Biotin-TTDS}-GIDVQPHSQSTSL

[15] = biological target: T11, PCDH15-CD2 C-terminal peptide (biotin-TTDS-GANSEQYNTAL) (mouse); experiment: as above; settings: both partners purified
T11 construct: C-terminal 11 aa of protocadherin-15 isoform CD2, including the PBM; source: synthetic peptide (Eurogentec); not shown: biotin, N-terminal, kept
T11 peptide: {Biotin-TTDS}-GANSEQYNTAL

With “PDZ domains of harmonin in tandem association” the Kd [1] was over 200 µM, the Kd [2] was over 200 µM and the Kd [3] was over 200 µM.

B1: whirlin PDZ3 (protein)
chain: TSTLVRVRKSAATLGIAIEGGANTRQPLPRIVTIQRGGSAHNCGQLKVGHVILEVNGQTLRGKEHKEAARIIAEAFKTKERDYIDFLVTE
Work on B1 yielded a Kd [4] of about 4 µM.

B2: CDH23 C-terminal peptide (biotin-TTDS-VIMESPLEITEL) (peptide)
peptide: {Biotin-TTDS}-VIMESPLEITEL
notes: C-terminal residues of cadherin-23, including the PBM; source: synthetic peptide (Eurogentec); not shown: biotin, N-terminal, kept
In the case of B2, the Kd [5] is reported as about 20 µM, the Kd [6] is reported as over 1000 µM and the Kd [7] is reported as 64 µM. The Kd [8] was over 1000 µM, the Kd [9] was over 1000 µM and the Kd [10] was 4.3 µM. For the same molecule, the Kd [11] was 11.3 µM and the Kd [12] was 141 µM.

B3: harmonin-PDZ3 (aa residues 738-849) (domain or fragment)
chain: DPYSMFSPEQIAGKDVRLLRIKKEGSLDLALEGGVDSPVGKVVVSAVYEGGAAERHGGVVKGDEIMAINGKIVTDYTLAEAEAALQKAWNQGGDWIDLVVAVCPPKEYDDEL
B3 was tested, and the Kd [13] was over 200 µM, the Kd [14] was over 200 µM and the Kd [15] was over 200 µM.

B4: full-length harmonin-a1 (natural protein)
chain: MDRKVAREFRHKVDFLIENDAEKDYLYDVLRMYHQTMDVAVLVGDLKLVINEPNRLPLFDAIRPLIPLKHQVEYDQLTPRRSRKLKEVRLDRLHPEGLGLSVRGGLEFGCGLFISHLIKGGQADSVGLQVGDEIVRINGYSISSCTHEEVINLIRTKKTVSIKVRHIGLIPVKSSPEESLKWQYVDQFVSESGGVRGGLGSPGNRTTKEKKVFISLVGSRGLGCSISSGPIQKPGIFVSHVKPGSLSAEVGLETGDQIVEVNGIDFTNLDHKEAVNVLKSSRSLTISIVAGAGRELFMTDRERLEEARQRELQRQELLMQKRLAMESNKILQEQQEMERQRRKEIAQKAAEENERYRKEMEQISEEEEKFKKQWEEDWGSKEQLILPKTITAEVHPVPLRKPKSFGWFYRYDGKFPTIRKKAKEKKKAKYDSLQDLRKNKKELEFEQKLYKEKEEMLEKEKQLKINRLAQEVSETEREDLEESEKTQYWVERLCQTRLEQISSAENEIPEMTTGPPPPPPSVSPLAPPLRRFAGGIHLHTTDLDDIPLDMFYYPPKTPSALPVMPHPPSVNSPSKVPAPPVLPSSGHVSSSSSPWVQRTPPPIPIPPPPSIPTQDLTPTRPLPSALEEALGNHPFRTGDPGHPADDWEANTHSGKPSSSPTTERSFPPAPKTFCPSPQPPRGPGVSTISKPVMVHQEHNFVYRPAVKSEVLPQEMLKRMVVYQTAFRQDFRKYEEGFDPYSMFSPEQIAGKDVRLLRIKKEGSLDLALEGGVDSPVGKVVVSAVYEGGAAERHGGVVKGDEIMAINGKIVTDYTLAEAEAALQKAWNQGGDWIDLVVAVCPPKEYDDELSSLPSSAAESPQLARKQLEAYEPVCRHGFFLQLEPTNLLLKSRERNQTDPSWRPASSAPSP
B4 was tested, and the Kd [13] was over 200 µM, the Kd [14] was over 200 µM and the Kd [15] was over 200 µM.
